Data from US12679878B2, “CRF2 receptor agonists and their use in therapy” (SANOFI, priority 2020, dated 2026).
Starred links: 1 amine or outer side, 2 acyl side, 3 side chain; linkers in the order of their positions; H or OH if unused. Non-standard residues stand in square brackets, D forms with d. Groups on a side chain read outwards from the residue. No end group written: not given here. *: point of attachment. C16 diacid = O=C(O)CCCCCCCCCCCCCCC(=O)*; γGlu = O=C(O)[C@H](CCC(=O)[*:2])N[*:1]; Aib = CC(C)(N)C(=O)O

Legend:
[1] = molecular target: human corticotropin-releasing factor 2α receptor (CRF2α receptor) (human), Q13324; test: cell-based or functional assay
Sequence of human corticotropin-releasing factor 2α receptor (CRF2α receptor) (human), Q13324 (Q13324 20-411): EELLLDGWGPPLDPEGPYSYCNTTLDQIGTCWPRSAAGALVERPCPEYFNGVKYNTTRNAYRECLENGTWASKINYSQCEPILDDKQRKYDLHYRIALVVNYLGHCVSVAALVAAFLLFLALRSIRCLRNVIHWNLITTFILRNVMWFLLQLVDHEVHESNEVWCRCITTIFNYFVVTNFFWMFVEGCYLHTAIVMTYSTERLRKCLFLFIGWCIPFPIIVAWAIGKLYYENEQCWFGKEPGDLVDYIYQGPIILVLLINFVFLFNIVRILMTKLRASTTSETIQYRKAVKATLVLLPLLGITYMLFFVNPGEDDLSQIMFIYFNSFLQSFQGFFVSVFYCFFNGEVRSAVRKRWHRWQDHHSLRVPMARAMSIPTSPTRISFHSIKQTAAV

[2] = molecular target: human corticotropin-releasing factor 2α (CRF2α receptor) (human), Q13324; test: cell-based or functional assay
Sequence of human corticotropin-releasing factor 2α (CRF2α receptor) (human), Q13324 (Q13324 20-411): as above

Row | Binder | CRF2 EC50 (cAMP, HTRF) [1] [nM] | EC50 [nM], 0% HSA (cAMP, HTRF) [2] [nM]
1 | IVLSLD[dV]PIKLK([γGlu-C16 diacid])QILLKQERQKKQREQAEKNKQILEQV-NH2 (N-terminus assumed; SMILES CC[C@H](C)[C@H](N)C(=O)N[C@H](C(=O)N[C@@H](CC(C)C)C(=O)N[C@@H](CO)C(=O)N[C@@H](CC(C)C)C(=O)N[C@@H](CC(=O)O)C(=O)N[C@@H](C(=O)N1CCC[C@H]1C(=O)N[C@H](C(=O)N[C@@H](CCCCN)C(=O)N[C@@H](CC(C)C)C(=O)N[C@@H](CCCCNC(=O)CC[C@H](NC(=O)CCCCCCCCCCCCCCC(=O)O)C(=O)O)C(=O)N[C@@H](CCC(N)=O)C(=O)N[C@H](C(=O)N[C@@H](CC(C)C)C(=O)N[C@@H](CC(C)C)C(=O)N[C@@H](CCCCN)C(=O)N[C@@H](CCC(N)=O)C(=O)N[C@@H](CCC(=O)O)C(=O)N[C@@H](CCCNC(=N)N)C(=O)N[C@@H](CCC(N)=O)C(=O)N[C@@H](CCCCN)C(=O)N[C@@H](CCCCN)C(=O)N[C@@H](CCC(N)=O)C(=O)N[C@@H](CCCNC(=N)N)C(=O)N[C@@H](CCC(=O)O)C(=O)N[C@@H](CCC(N)=O)C(=O)N[C@@H](C)C(=O)N[C@@H](CCC(=O)O)C(=O)N[C@@H](CCCCN)C(=O)N[C@@H](CC(N)=O)C(=O)N[C@@H](CCCCN)C(=O)N[C@@H](CCC(N)=O)C(=O)N[C@H](C(=O)N[C@@H](CC(C)C)C(=O)N[C@@H](CCC(=O)O)C(=O)N[C@@H](CCC(N)=O)C(=O)N[C@H](C(N)=O)C(C)C)[C@@H](C)CC)[C@@H](C)CC)[C@@H](C)CC)C(C)C)C(C)C) [peptide of SEQ ID NO: 190] | 2.47 | 2.47
2 | IVLSLD[dV]PIGLK([γGlu-C16 diacid])QILLKQERQKK[Aib]REQAETNKRILERV-NH2 (N-terminus assumed; SMILES CC[C@H](C)[C@H](N)C(=O)N[C@H](C(=O)N[C@@H](CC(C)C)C(=O)N[C@@H](CO)C(=O)N[C@@H](CC(C)C)C(=O)N[C@@H](CC(=O)O)C(=O)N[C@@H](C(=O)N1CCC[C@H]1C(=O)N[C@H](C(=O)NCC(=O)N[C@@H](CC(C)C)C(=O)N[C@@H](CCCCNC(=O)CC[C@H](NC(=O)CCCCCCCCCCCCCCC(=O)O)C(=O)O)C(=O)N[C@@H](CCC(N)=O)C(=O)N[C@H](C(=O)N[C@@H](CC(C)C)C(=O)N[C@@H](CC(C)C)C(=O)N[C@@H](CCCCN)C(=O)N[C@@H](CCC(N)=O)C(=O)N[C@@H](CCC(=O)O)C(=O)N[C@@H](CCCNC(=N)N)C(=O)N[C@@H](CCC(N)=O)C(=O)N[C@@H](CCCCN)C(=O)N[C@@H](CCCCN)C(=O)NC(C)(C)C(=O)N[C@@H](CCCNC(=N)N)C(=O)N[C@@H](CCC(=O)O)C(=O)N[C@@H](CCC(N)=O)C(=O)N[C@@H](C)C(=O)N[C@@H](CCC(=O)O)C(=O)N[C@H](C(=O)N[C@@H](CC(N)=O)C(=O)N[C@@H](CCCCN)C(=O)N[C@@H](CCCNC(=N)N)C(=O)N[C@H](C(=O)N[C@@H](CC(C)C)C(=O)N[C@@H](CCC(=O)O)C(=O)N[C@@H](CCCNC(=N)N)C(=O)N[C@H](C(N)=O)C(C)C)[C@@H](C)CC)[C@@H](C)O)[C@@H](C)CC)[C@@H](C)CC)C(C)C)C(C)C) [peptide of SEQ ID NO: 193] | 0.82 | 0.82
